assay: soluble on expression in E. coli; label from the status in PepcDB or PDB records

Sequence	soluble on expression in E. coli
MAKTIAYDEEARRGLERGLNALADAVKVTLGPKGRNVVLEKKWGAPTITNDGVSIAKEIELEDPYEKIGAELVKEVAKKTDDVAGDGTTTATVLAQALVREGLRNVAAGANPLGLKRGIEKAVEKVTETLLKGAKEVETKEQIAATAAISAGDQSIGDLIAEAMDKVGNEGVITVEESNTFGLQLELTEGMRFDKGYISGYFVTDPERQEAVLEDPYILLVSSKVSTVKDLLPLLEKVIGAGKPLLIIAEDVEGEALSTLVVNKIRGTFKSVAVKAPGFGDRRKAMLQDMAILTGGQVISEEVGLTLENADLSLLGKARKVVVTKDETTIVEGAGDTDAIAGRVAQIRQEIENSDSDYDREKLQERLAKLAGGVAVIKAGAATEVELKERKHRIEDAVRNAKAAVEEGIVAGGGVTLLQAAPTLDELKLEGDEATGANIVKVALEAPLKQIAFNSGLEPGVVAEKVRNLPAGHGLNAQTGVYEDLLAAGVADPVKVTRSALQNAASIAGLFLTTEAVVADKPEKEKASVPGGGDMGGMDF	soluble
MAKVCYFTGRKTSSGNNRSHAMNSTKRTVKPNLQKVRVLIDGKPKKVWVSTRALKSGKIERVLEHHHHHH	not soluble
MAKVLVLNASYEPLNITHWQRAVVLLLKDKAEALENNGKLIYANFPLPSVIRLRQYIKVPYKEIPLTRRNVLERDRHTCQYCNYKGEQLTLDHVIPRSRGGGDSWENLVTACVRCNIKKGNRTPREAQMSLNYTPRRPYSSLLFEIIKHTRNDRNHEWRKYVIGILEHHHHHH	not soluble
MAKVYGSLIDNETRCTHYYSSLDVIAIKFKCCNKYYPCYKCHNEHVSHTIERWAENEFDEKAIMCGVCKHEMRIRDYMMVEMCPRCKAHFNSRCKFHYHLYFEVLEHHHHHH	not soluble
MAKWGEGDPRWIVEERADATNVNNWHWTERDASNWSTEKLKTLFLAVRVENEEGKCEVTEVNKLDGEASINNRKGKLIFFYEWTIKLNWTGTSKSGVQYKGHVEIPNLSDENSVDEVEISVSLAKDEPDTNLVALMKEDGVKLLREAVGIYISTLKTEFTQGMILPTVNGESVDPVGQPALKTETCKAKSAPSKSQAKPVGVKIPTCKITLKETFLTSPEELYRVFTTQELVQAFTHAPAALEADRGGKFHMVDGNVTGEFTDLVPEKHIAMKWRFKSWPEGHFATITLTFIDKNGETELCMEGRGIPAPEEERTRQGWQRYYFEGIKQTFGYGARLF	soluble
MAKYCLKKTSKRVSCAKRYKIEKKVRDHNRKVKKEAKKNGTTNKKEKTISVPNSCPFKEEILVQAEQEREKIKVRQEAAKEAAKIHRIEKRKNNLPANFESMVAKASKQGTEFDKKVASAAEHEKFNTLDDKTIKAYASEVRKTVEIADVIIQVLDARDPLGSRSKSVEDQVLKGGKRLVLLLNKIDLVPRENVQKWLEYLRGQFPTIAFKASTQEQKSNIGRFNSAILNNTETSKCVGADIVMKILANYCRNKDIKTSIRVGVVGFPNVGKSSVINSLKRRKACNVGNLPGITKEIQEVELDKNIRLIDSPGVILVSQKDLDPIEVALKNAIRVDNLLDPIAPVHAILRRCSKETIMLHYNLADFNSVDQFLAQLARRIGKLRRGARPDVNAAAKRVLNDWNTGKLRYYTHPPEQGTAKEDIVVPAEVVSQFSKEFDIDAIAEEQNQIVEGLPMESDIIAPHNSDEEEDDDDEMETDVNEKKQTVTSGRKVKGPTKDDDKPVLPESLALEGNVQLNKLIKTAIKKQKKKSKKTANRADKLSDSLGNMLGGDAMEM	not soluble
MALAEEDVHMIIKQVLDEVVGASTQYTHKDSVQWNQKAVEQITKKLVAAGKPYKYVVTSSFLQISSGSGLNVSTISYWNKVTDSSYMYRWEAKTMLAIVYVFAIAI	not soluble
MALDLTAYFDRINYRGATDPTLDVLQDLVTVHSRTIPFENLDPLLGVPVDDLSPQALADKLVLRRRGGYCFEHNGLMGYVLAELGYRVRRFAARVVWKLAPDAPLPPQTHTLLGVTFPGSGGCYLVDVGFGGQTPTSPLRLETGAVQPTTHEPYRLEDRVDGFVLQAMVRDTWQTLYEFTTQTRPQIDLKVASWYASTHPASKFVTGLTAAVITDDARWNLSGRDLAVHRAGGTEKIRLADAAAVVDTLSERFGINVADIGERGALETRIDELLARQPGADAP	not soluble
MALGGGTFVTQNKILPGSYINFISAKRATSSLSDRGIVAIPLELDWGIDEDVFQVTSDDFEKYSVKYFGYDYTHEKLKGLRDLFKNIRLGYFYKLNKGVKASCTIATAKYSGIRGNDLKVTVTTNIDDNAKFDVVTLLDNKKVDTQIAKVITDLQDNDYITWKKDATLEASAGLVFTGGTNGEAVTGAEYQAFLDKIESYSFNALGCLATTTEIKSLFVEFTKRMRDKVGAKFQTVLYKKSDADYEGVVSVENKIKEIGLVESSLIYWAAGAIAGCDINKSNTNKKYDGEFDVDVNYTQIQLEEALKTGKFIFHKVGDEVHVLEDINTFVSFTDDKNDDFSSNQSVRVLDQIANDIATLFNEKYLGKVPNDKAGRISFWNDVVKHHKELENIRAIEDFKTDDVSVELGNDKKTVIVSDAVKVINAMSKLYMTVSVNLEHHHHHH	soluble
MALHDENVVWHSHPVTVQQRELHHGHRGVVLWFTGLSGSGKSTVAGALEEALHKLGVSTYLLDGDNVRHGLCSDLGFSDADRKENIRRVGEVANLMVEAGLVVLTAFISPHRAERQMVRERVGEGRFIEVFVDTPLAICEARDPKGLYKKARAGELRNFTGIDSVYEAPESAEIHLNGEQLVTNLVQQLLDLLRQNDIIRS	soluble
MALLEICCYSMECALTAQRNGADRIELCAAPKEGGLTPSFGVLRSVREHITIPVHPIIRPRGGDFYYTDGEFAAMLEDIRLVRELGFPGLVTGVLTVDGDVDMSRMEKIMAAAGPLAVTFHRAFDMCANPFNALKNLADAGVARVLTSGQKADAAQGLSIIMELIAQGDAPTIMAGAGVRANNLQNFLDAGVREVHSSAGVLLPSPMRYRNQGLSMSADIQADEYSRYRVEGAAVAEMKGIIVRHQAK	not soluble
MALLTSKLRYLLLFYAVFQAAQFGLRWKSYDISPKQFKTIAGKAAAAPTISQSISTLTSGMRTYYEPIMPSHFEWHAIQLGGLTLRMYPMLTAFTEFAAAFSAPFPTSGRPGLHWANTTCTVLKGKVSRFNDGTQDETSENFASGAAFRHGQFESHVYSFEKDTYVACYGRGFLPLSSTVHVTSGISLGEPLSVIQFYMKQAYNYWNNLSHTLYRVFQHYKARATGEL	not soluble
MALTEERVLEALRTVMDPELGKDLVSLGMVDEVRVEGGRVDLLVNLTTPACPLKGQIEADIRRALAPLGAEEVRVRFGGGVRPPERYALPGVKHVVAVASGKGGVGKSTVAANLALALSREGAKVGLLDADLYGPSQAKMFGLEGMRLKVDQDRRILPLEAHGIKVLSIANIVPPGQALAWRGPILHGTLKQFLQDVNWGELDYLVVDLPPGTGDVQLSLSQLTQVSGGVIVTTPQEVALIDAERAADMFRKLQVPVLGVLENMSAFLCPHCGKPTPIFGEGGGRRLAERLKTRFLGEIPLTLALRESGDRGVPVLAQDPEGLEAQAFLKAARELAAALSVQTFLPLPMA	soluble
MAMIKVDQHYFELIENYRECFNEEQFIARYSDILDKYDYIVGDYGYDQLRLKGFYKDSNKKAEMSKRFSNIQDYIFEYCNFGCPYFVLRHLSKQEVKKLIEEVHPSDVIDDDNKLQDVKIKPTIQDTEHLEHHHHHH	soluble
MAMQAAKRANIRLPPEVNRILMIRNLPYKITAEEMYDIFGKYGPIRQIRVGNTPETRGTAYVVYEDIFDAKNACDHLSGFNVCNRYLVVLYYNANRAFQKMDTKKKEEQLKLLKEKYGINTDPPK	soluble
MAMSNMTYNNVFDHAYEMLKENIRYDDIRDTDDLHDAIHMAADNAVPHYYADIFSVMASEGIDLEFEDSGLMPDTKDVIRILQARIYEQLTIDLWEDAEDLLNEYLEEVEEYEEDEE	soluble
MAMSTKLSVAIHILSLIETGPQEQVTSEYIASSVNTNPVVVRRLMSQLKKAGLIHSMRGANKNTLLKKPEEISLYEIYTAVELEREIFNIHQNPNPNCSVGANIQSVLETEFTKVQQKMEEELKSITLADVIHEIEVKRDK	not soluble
MANAADDRRPKYQRIADTLREAIRSGEYGPGDRLPGENDLMATHGVARMTARQALSVLRDEGVAEARKGAGVFVREFRPLRRRGIQRLARQQWGNGRSIWSADIEDRSLDVDQVTVSEEAAPDGVAAVLDLADGETVCVRRRRFVLDGKPVLLATSYLPAALVAGSAITQEDTGKGGTYARLAELGHGPVHFREEIRSRMPSKAEASQLSVAAGTPVILICRTAFTDEGRAVEINEMTLDAASYVLEYDFDA	not soluble
MANSSVELRVSEAYPRDVGRKIVRIDRQTAARLGVEVGDFVKVSKGDRSVVAVVWPLRPDDEGRGIIRMDGYLRAALGVTVGDTVTVEKAEKVEPASKVVLAPTEPIRFGRDFVEYVKEFLLRKPISRGETIIVPVLEGLPLVVVSTQPAHFVYVTEATEVEIREKPVREEIERLRGVPKVTWEDIGDLEEAKERIREIVELPMKHPEIFKHLGIEPPKGILLYGPPGTGKTLLAKALANEIGAYFISINGPEIMSKYYGESEQRLREIFKEAEENAPSIIFIDEIDAIAPKREEVTGEVEKRVVAQLLTLMDGLKERGRVIVIGATNRPDAIDPALRRPGRFDREIEIRPPDKRARAEILKVHTRNMPLAEDVDLDKLAEMTHGYTGADLAALAKEAAMAALRRFIREGKINFEAKEIPATVLKELKVTMKDFMEAMKMIRPTLIREIYVEVPEVRWSDIGGLEEAKQALREAVEWPLKHPEIFEKMGIRPPRGVLLFGPPGTGKTLLAKAVATESGANFIAVRGPEILSKWVGESERAIRKIFERARQAAPAVVFFDEIDAIAPARGARFDTSGVTDRIVNQMLAEMDGIQPLSNVVVIGATNRPDILDPALLRPGRFDRLIYVPPPDKEARKEIFKIHTKKVPLGEDVDLEKLAEMTEGYTGADIEAVVREAVMAKLREKLEVGKVEMRHFLEALKKVPPSLTKEDILRYERLAKELKKLTLG	soluble
MANVNTFSIVKNVKLDLGIEDDNQDQLLEMLLNRITDHFKANYGVLEIDNAFSFVLEDCLIARFNRRGSERAKTEEVEGHKTTYYDHLNEFEPYDAMIMAKLNLIKDKSRKGGLYFL	not soluble
MAPIRRSSRLAERYDAIESKKRSLKRLEEQIKAEEEQFSDKMKQLEDEIKIKEQVITMFKRKTVRREWMRNSRQATTNINIAQIESLKLQLEEGEKDIAEAEKQAEPTTPQQEAELSETFKQMVRDRMKVKDVDEKLLQQYMKKENVEFEWRSCFICTMEYSRTDKNLHPIILNCGHNLCRSCINKLTGNGIVKCPFDRLDTRVRVTGLPRNLALINL	not soluble
MAPKRALPTEQVVAQLLGDDMGPSGPRKRERLNHLSQEEKMDRRKLKNRVAAQNARDKKKERSAKIEDVMRDLVEENRRLRAENERLRRQNKNLMNQQNESVMYMEENNENLMNSNDACIYQNVVYEEEVVGEVAPVVVVGGEDRRAFESAAFINEPQQWEQARSTSINNNISNQLRRMDSKKNNTISVDMYLTIISILCNHMDRNKKMDTSNKSSNISRAQAESSIDSLLATLRKEQTVMQRLVQADPCTHLQKRVKHFRRIP	soluble
MAPKRLMVEHALARAKEAAGLADVKKVYTYYGDEACTVFIGRTKQGKAVVVWVPEKKGSVVVKGVDSGISEAEARAILQRDRRPRRIIDATLGMEKGVPLWELTYIDAEGRYSFYYLHFADGAFLKRYSFQQ	not soluble

From the DeepSol protein solubility set
